Data taken from PMC10645843, “Fungal secondary metabolism is governed by an RNA-binding protein CsdA/RsdA complex” (Nature Communications, 2023).

Tests used:
[1] = target: T1, RsdA-His (PFICI_10532), recombinant (Pestalotiopsis fici, UniProt W3WX91 1-730); experiment: pull-down; His pull-down: RsdA-His (or RsdA^ΔC-terminal-His) held on Ni-NTA resin, purified GST-CsdA or its deletion forms added, overnight at 4 °C; binding buffer 50 mM Tris, 250 mM NaCl, 0.2% glycerol, 5 mM DTT, 0.6% Triton X-100, 1 mM PMSF, pH 7.5; wash with 1% Triton X-100; western blot with anti-His and anti-GST; conditions: both partners purified
T1 construct: RsdA, regulator of secondary metabolism and development, Pestalotiopsis fici, locus PFICI_10532; open reading frame amplified from P. fici cDNA; RsdA-His printed as 80.4 kDa; Printed as RsdA-His; vector pET28a (His6-tag); also called PfRsdA; RsdA-His protein; source: E. coli BL21 (plasmid pYZS42, pET28a), purified (Ni-NTA resin)
T1 sequence (looked up): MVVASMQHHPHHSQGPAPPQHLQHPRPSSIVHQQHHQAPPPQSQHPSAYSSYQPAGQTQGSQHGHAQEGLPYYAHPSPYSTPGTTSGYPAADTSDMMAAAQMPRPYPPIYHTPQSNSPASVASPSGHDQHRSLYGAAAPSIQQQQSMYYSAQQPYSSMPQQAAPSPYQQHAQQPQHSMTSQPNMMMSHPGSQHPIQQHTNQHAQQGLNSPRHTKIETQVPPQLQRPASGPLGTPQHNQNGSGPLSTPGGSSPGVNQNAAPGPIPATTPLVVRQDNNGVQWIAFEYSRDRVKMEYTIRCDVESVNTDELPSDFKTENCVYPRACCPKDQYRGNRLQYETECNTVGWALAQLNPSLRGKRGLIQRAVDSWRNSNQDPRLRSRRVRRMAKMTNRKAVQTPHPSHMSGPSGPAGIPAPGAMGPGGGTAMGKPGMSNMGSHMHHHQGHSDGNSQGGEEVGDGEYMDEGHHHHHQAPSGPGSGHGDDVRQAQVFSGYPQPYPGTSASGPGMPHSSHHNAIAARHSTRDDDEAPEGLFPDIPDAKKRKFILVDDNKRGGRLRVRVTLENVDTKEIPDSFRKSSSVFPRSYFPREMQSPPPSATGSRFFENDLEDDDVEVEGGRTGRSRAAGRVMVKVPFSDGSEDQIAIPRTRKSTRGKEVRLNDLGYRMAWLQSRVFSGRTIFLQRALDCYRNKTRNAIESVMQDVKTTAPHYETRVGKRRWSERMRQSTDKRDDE

GST-CsdA [2] = target: T2, GST-CsdA (Pestalotiopsis fici CGMCC3.15140, UniProt W3WSJ8 1-634); experiment: ITC; EMSA: Beyotime EMSA kit buffer, 20 min at 25 C, 6% polyacrylamide gel; ITC: 200 uM RNA into 50 uM CsdA, 25 C, buffer not stated (protein elution buffer 50 mM Tris, 150 mM NaCl, 10 mM GSH, pH 8.0); conditions: protein: recombinant; tags: GST (N-terminal, pGEX-4T; pYSZL6)
T2 sequence: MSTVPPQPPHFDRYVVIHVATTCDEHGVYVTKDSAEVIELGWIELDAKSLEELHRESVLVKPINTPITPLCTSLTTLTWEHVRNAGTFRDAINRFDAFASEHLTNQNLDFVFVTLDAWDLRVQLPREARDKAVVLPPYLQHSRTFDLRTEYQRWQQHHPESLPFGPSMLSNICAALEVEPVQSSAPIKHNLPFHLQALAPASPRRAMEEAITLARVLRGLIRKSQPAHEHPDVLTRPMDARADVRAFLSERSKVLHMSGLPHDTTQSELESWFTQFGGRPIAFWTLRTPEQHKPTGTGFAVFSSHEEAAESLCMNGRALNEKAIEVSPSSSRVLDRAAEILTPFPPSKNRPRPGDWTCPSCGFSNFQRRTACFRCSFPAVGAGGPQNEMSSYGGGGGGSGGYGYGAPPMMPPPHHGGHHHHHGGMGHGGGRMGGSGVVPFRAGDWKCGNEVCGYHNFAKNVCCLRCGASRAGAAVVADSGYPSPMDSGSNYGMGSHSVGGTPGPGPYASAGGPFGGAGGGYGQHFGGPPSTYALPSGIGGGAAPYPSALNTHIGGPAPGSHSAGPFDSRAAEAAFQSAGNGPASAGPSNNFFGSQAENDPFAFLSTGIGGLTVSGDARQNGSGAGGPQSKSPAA

GST-CsdA [3] = target: T2, GST-CsdA; experiment: EMSA; EMSA: Beyotime EMSA kit buffer, 20 min at 25 C, 6% polyacrylamide gel; ITC: 200 uM RNA into 50 uM CsdA, 25 C, buffer not stated (protein elution buffer 50 mM Tris, 150 mM NaCl, 10 mM GSH, pH 8.0); conditions: protein: recombinant; tags: GST (N-terminal, pGEX-4T; pYSZL6); label: biotin

Binder	Kd (GST-CsdA [2]) [µM]	also measured
GST-CsdA (PFICI_10709), recombinant (natural protein, Pestalotiopsis fici, UniProt W3WSJ8 1-634, looked up, open reading frame amplified from P. fici cDNA; CsdA said to contain 730 amino acids; GST-CsdA printed as 93.6 kDa; Printed as GST-CsdA; vector pGEX-4T (GST-tag); also called PfCsdA; GST-CsdA protein; source: E. coli BL21 (plasmid pYSZL6, pGEX-4T), purified (GST-tag resin)) MSTVPPQPPHFDRYVVIHVATTCDEHGVYVTKDSAEVIELGWIELDAKSLEELHRESVLVKPINTPITPLCTSLTTLTWEHVRNAGTFRDAINRFDAFASEHLTNQNLDFVFVTLDAWDLRVQLPREARDKAVVLPPYLQHSRTFDLRTEYQRWQQHHPESLPFGPSMLSNICAALEVEPVQSSAPIKHNLPFHLQALAPASPRRAMEEAITLARVLRGLIRKSQPAHEHPDVLTRPMDARADVRAFLSERSKVLHMSGLPHDTTQSELESWFTQFGGRPIAFWTLRTPEQHKPTGTGFAVFSSHEEAAESLCMNGRALNEKAIEVSPSSSRVLDRAAEILTPFPPSKNRPRPGDWTCPSCGFSNFQRRTACFRCSFPAVGAGGPQNEMSSYGGGGGGSGGYGYGAPPMMPPPHHGGHHHHHGGMGHGGGRMGGSGVVPFRAGDWKCGNEVCGYHNFAKNVCCLRCGASRAGAAVVADSGYPSPMDSGSNYGMGSHSVGGTPGPGPYASAGGPFGGAGGGYGQHFGGPPSTYALPSGIGGGAAPYPSALNTHIGGPAPGSHSAGPFDSRAAEAAFQSAGNGPASAGPSNNFFGSQAENDPFAFLSTGIGGLTVSGDARQNGSGAGGPQSKSPAA		binding result [1]: binds
GUCGGUAUCGUCGGUAUGGUCGGUAUUGUCGGUAU (ssRNA) [4xGUCGGUAU RNA (ITC)]	10.5 ± 5.12	
CCAGGGAGGUGAAGAAGUCGGUAUGUUUCACCAGAUGUGAU (ssRNA) [rsdA intron 2 5' splice site RNA (EMSA probe)]		binding result (GST-CsdA [3]): binds
GUCGGUAU (ssRNA) [1xGUCGGUAU RNA (ITC)]	19.7 ± 3.67	
